Source: the DeepSol protein solubility set

Assay: soluble on expression in E. coli; label from the status in PepcDB or PDB records

| Sequence | soluble on expression in E. coli |
| --- | --- |
| MGSDKIHHHHHHMHIRKYDHDYSRRFFMEQAAKGIATAGVLGPLWPMIANSADITKAYPDELMSIDAWSKGKIKTGDFITAENVEIVKELLDPVAYHHIKTMGRKIRIVPTTRDITRMFPAEYLEATLRNQGKAKLDANSNVVSSDGKPWIGGNPFPDAKTGLEVAANLTMCWGRKDNSLTAIRDWEVAPDGSMSYQYDFAWVEQNTTARADGKVLPGGDELLRYNAVYFTGPSDVKGTSYLNTWYYDQRKFPELVGYLPAFKRVRKFPTNQRFEPLVPGMNLYLSDAWAAGDPMLTWGNYKIVGRGPMLGAQSQTWYGDRPNWERPVQGGPKNQTFFETQMELCPDVVIFEAEPTGYPRAPVGKKRVWVDVRNQMYVAYITYDRRGEIFKSFEPQYSFLEKGDKKLMDGKSTAWHWTAVQCYNFQDGRMTRFQPVTSIAGGMSTAFNIDGLYEKYMTQQALQRMGT | not soluble |
| MGSDKIHHHHHHMNELTKQLQEIMVPKAALIAYEYQEGHYASGSHYLELRPINKKGRMEAGIPVTYEFMDSLVESYSDGNRRIPHGWLPPNMLWCDTRRGHESYVWYNPPGKRRMFFKNDLNIGDGMFHVPGVIYIIKNERMDIFAYKGKKPDGRTPLYLAPFFNVTGGNVCLGNSTLEKPESLDFHTLLEYWEKRFWLSEFSHLGGGKNPTRNNLVLVTERMREQPFDNDELQPINKRLKDILP | not soluble |
| MTGLDKIISQILEDAGKEAQEISEKAKSEAEAVLAEAKAGCKKIAAENDEKLAGEATSYMERIKSSAELKKRQAVLLAKQQVITEMLEQAYEALLKKEGEEYFALIGKMLDKYVLPKTGEIYFSEKDLDRMPQGFEAVIEKAAVSKGGSLTLVKEPKNIDGGFILVYGGIEENCSFRALLAARRDELSDKVHAMLFS | not soluble |
| MSLNEAGIVLLPKSRQLPALSMIDQNGAAVALDGLKDQWTLMFFGYTFCPDICPTTLAQIKQIRSELPTAAVERMRVVLVSVDPNRDTPQQLKEYLSYFDPQYIGLTAPVADIQKLANSVSIPFIPADTSKPNYFVDHSGNLALIGPDGTQRGFIRAPLNNQKLVKQLPRLLERDEGHHHHHH | soluble |
| MTLLGIKLKQTQQLNQRLQQSLRVLQMSGIELEREVENWLSDNPLLERKDTDEFSDAEFSHYTAPARQIGGDEGEDMLSNIAGEQDFKQYLHAQVCEHPLSDQEAACVHILIDFLDEQGYLTDSIEDILDHTPLEWMLDEAMLQHALTALKKFDPAGVAAADLNESLILQIERLGECAAKPAALHIVRNALDSIDGNRSQTLARIKKHLPQTDSGTLEAALDLIASLNPFPAAGFASSTPTPYSDEALANLLAFRGMEVSRRTIAKYRESFEIPAAHKRKTAE | not soluble |
| MEYLNVAEIKALLNSTISKLNPRYTSNYMIVTAILTGARLSEIAGLTWNDINFNFNTININKSYDYFAKSFKPTKNKSSNRIIKINNTLCDVLKELRTNNTDLVFKNKRGLIPTSNAVNKALRARLEELNINRRNFHFHSLRHSHVAFLLSQGIDIYPIAQRLGHSDITTTTRTYAYLIEEYKDKNDAIIIAGLDKLEHHHHHH | soluble |
| LQASCSDDQEHRLGSLDFYTGVFALEKSRIAEISNRATLELQKMATSGEPMWLRSVETGREILNYDEYLKEFPQAQASSFPGRKTIEASRDAGIVFMDAHKLAQSFMDVGQWKETFACLISKAATVDVIRQGEGPSRIDGAIQLMFGEMQLLTPVVPTREVYFVRSCRQLSPEKWAIVDVSVSVEDSNTEKEASLLKCRKLPSGCIIEDTSNGHSKVTWVEHLDVSASTVQPLFRSLVNTGLAFGARHWVATLQLHCERLVFFMATNVPTKDSLGVTTLAGRKSVLKMAQRMTQSFYRAIAASSYHQWTKITTKTGQDMRVSSRKNV | soluble |
| MANDIDRAGVAKAYARWAPIYDLVFGKVFDSGRQSTIAVADAIGGRVLDVGVGTGLSLSDYSKTTRLCGVDISEPMLRKAHERVRTLNLSNVDVLAVMDAKNLAFPANYFDAVVAQYVITAVPDPEATLDDFIRVLKPGGELILVNHIGAESGPRKLFELAFSPIARRLGWRPEFPWQRLVNWAARHRGVELAERRPMPPMGHFSLIRYRKLLEHHHHHH | not soluble |
| MLQGFRWSPHGFWVCQARFFNKKIRQRTHYEVLGVESTATLSEIKSAFYAQSKKVHPDNSSEESATASFLELKNAYDVLRRPADRRLYDYQLRGGGGRYPNGGQRYQYPNTAPQYDFSRDWSTYWSQNPDNSRSSREERDKSSREFMKSI | not soluble |
| MDILSDIANAVLPQDVVSKVESKRAVAVLRGTAVFGTVWLTQKAEGEETEFEGEIKGLSPGLHGFHIHQYGDSTDGCTSAGPHFNPCKMNHGGRDSVVRHVGDLGNVEAGADGVAKIKFSDKVVSLFGANTVIGRSMVVHVDRDDLGQGIDDKAEESLKTGNAGARAACGVIALAAPA | not soluble |
| GSHMATEPKAGRPSDYMPEVADDICSLLSSGESLLKVCKRPGMPDKSTVFRWLAKHEDFRDKYAKATEARADSIFEEIFEIADNAIPDAAEVAKARLRVDTRKWALARMNPRKYGDKVTNELVGKDGGAIQIETSPMSTLFGK | soluble |
| GSAASSALKGLIQQFTTITGASESVGKHMLEACNNNLEMAVTMFLDGGG | soluble |
| MALHHHHHHGVTGELRRRADGIWQRILAHPFVAELYAGTLPMEKFKYYLLQDYNYLVNFAKALSLAASRAPSVDLMKTALELAYGTVTGEMANYEALLKEVGLSLRDAAEAEPNRVNVSYMAYLKSTCALEGFYQCMAALLPCFWSYAEIAERHGGKLRENPVHVYKKWASVYLSPEYRGLVERLRAVLDSSGLSAEELWPYFKEASLYELEFWQAAYEGH | soluble |
| MENNVESNLQPVPMRYGDKRYYSWNQHLREQFGEKVFKVPLDAGFDCPNRDGNVASGGCTFCSERGSGDFAGDRKDDLVTQFHTIKERMHKKWTSGKYIGYFQAYTNTYAPVETLREYYEVILEQEGVVGLAIATRPDCLPDDVVEYLAELNKRTYLWVELGLQTVHERTALLINRAHDYQCYVDGVNKLRKHGIRVCSHIINGLPLENHQMMMETAKEVAKLDVQGIKIHSLHLLKRTPMVKQYEKGLVEFMSLEEYVNLVVDQLEVLPPHMIIHRLMGDGPGDLMIGPMWSMKKWEVLNAIEAELERRDSWQGKHYRAQVEVQ | not soluble |
| QNYSIERDVRLAPGEHFQIEGYDFYFSGLRDKDGPNYDGYIADFEITHDGKYINTLHAEKRFYRTAKSMMTEAAIDRGITRDLYIAMGERLDDNRSWAVRIYYKPFVR | not soluble |
| MSHRKALLIHNGNAANKNIEKALGAVVPVLSHHLDEVIIKQTKKKDHAYHFCRSIDDSVDTVFILGGDGTIHQCINAISALERKPAVGILPGGTSNDFSRVLGIPQNLAKAAEALMAGKKTSVDVCQMNDRYFLNFWGIGLIAETSNQINETEKALLGKISYFTSALRTVSSAASFPMTLKIDGEEIKEEAVMLLVMNGQYIGTNRIPLPDASIEDGLLDVLICRNTNLTALRELMSMEQGSIDRFTGELSYVQASRIEIETDTAKKADMDGEVYTHTPAVIQVLPQHIDMLVPANE | soluble |
| KVKELNLHELCAVCLEDFKPRDELGICPCKHAFHRKCLIKWLEVRKVCPLCNMPVLQLAQL | soluble |
| MGSDKIHHHHHHMTNDSIKSETEVAPRDQSAVGTIPWAIKGELILNCNCTVFCPCVVSLGKHPPTEGYCQAWAGVRIDEGHYGDADLSGLNVGLVLEIPGLMARGNWKAAAYIDERASDAAYEGLIDVFSGKARGTTGLFKVLVSEFLGAERAPVLFETEGKTRRLIVGYYIHGEVVPVGGADSDQDIVVTNTEYWMGPDITVATATKGRVRAFGRVWDFDGRSAEICQIDWKGPR | not soluble |
| MGSDKIHHHHHHVSLIQEYKKQQNWRDWERYLESIPYSGEDTVIDLGCSVGDVSQLFSLRVKNVIGIDVNQDFIDICESQKSVNQTFICSDFLSLDSQLIESTNGIWSSFSLSYLRNPLDFLIYLNASMKQGGWIALLDISCFISGNLAKKSQYYEKVLKFELESYKSGIYDFDFGSKMLSMLQNAGFDIVYLDNDVTDPELNFTGAASAEIIHGWAARLNRMNRLKDEIGAEYPDFCNELLANLSSDTHEKRQNVRFIVARKPITSVNKATDSCAGVHSQ | not soluble |
| MRSVKVYEETWPLHTPFVIARGSRSEAHVVVVELEEEDVKGIGECTPYPRYGESDASVMAQIMSIVPQLENGLTREALQKLLPAGAARNAVDSALWDLQARQRQQSLAGLLGVTLAPVFTTAQTVVIGTPEQMAASAAALWEKGATLLKIKLDARLISERMVAIRSAVPEATLIVDANESWRPEGLAARCQLLADLNVAMLEQPLPAQDDAALENFIHPLPICADESCHTRSSLKALTGRYDMINIKLDKTGGLTEALALATEAREQGFGLMLGCMLCTSRAISAALPLMPQVSFADLDGPTWLAVDVEPALRFTTGQLHL | not soluble |
| AGADGTSEELADNFVFGFHATVEALQQGRGNKLFLQEDARGEKIEQLKQAAKEQAVPVKWVPKAKLDTMSDHGVHQGMVLAITA | not soluble |
| ARICDVFSRFDETPLASASVAQVHAACLKTGEEVVVKVVRPGLKPIIGQDLAWLFILARMAERVSADARLLHPVQVVMDYEKTIYDELDLLREAANSSQLRRNFEGSDLLYVPQVYWDWCR | not soluble |
| MKNYPVKKNDVIEVEIIDLTHEGLGVAKVDHYPLFIENALPGEKLEIKVLKTGKSFGYGKVLTVLKSSEQRVPVKDENFTKVGISPLQHLAYGAQLSFKTQQVENVMQRVAKLQEVPVLPTIGMNDPWHYRNKAQIPVRKIDNQLQTGFFRKNSHDLIPMEHFYIQDPEIDAAIVKIRDIMRKYSVKPYNESDNTGNLRHIVVRRGYHTGEMMVVLITRTPKLFPISKIVPDILEAIPEVVSIVQNVNPKRTNVIFGDETILLHGSEKITDTIFDLKFEISARSFYQVNPQQTEVMYQKVKEYAALTGNEIVVDAYCGIGTIGLTLAQDAKQVYGIEVIEEAVKDAENNAKLNNIENATFTAGLAEELLPKLVENGLQPDVVVVDPPRKGLDGQLVNTLIETQPERIVYVSCNPATLARDIALLTEGGYEAKEIQPVDNFPQTTHIESVTLLTKAVD | not soluble |
| MFDIGFGELLLVMVLGLIVLGPERLPVAVRTVASWIRTLRSLASTVQNELSQELKLQEFQESLKKVEKASLQNLSPELKASMDELKDAAEAMKRGYTETPSPQKSDDPKKSGDHSATVEPQSNIPLNDPEAAYDGVIEAETAVRPADSQQKPENAAVAENHNDGRHATSDEAVGNNNVKPEQSQPSAASARQPSDSRLEHHHHHH | not soluble |
| MFSSAVRALCRTVPTVATRQLSTSRALLSLRPLGPKNTVPAFKGTAVVDGDFKVISDQDYKGKWLVMFFYPLDFTFVCPTEIIAYGDRANEFRSLGAEVVACSCDSHFSHLAWVNTPRKDGGLGDMDIPLLADFNKKIADSFGVLDKESGLSYRGLFLIDPSGTVRHTTCNDLPVGRSVDETLRVLKAFQFSDKHGEVCPADWHEDSPTIKPGVATSKEYFNKVNK | not soluble |
| SDSQSSILEENLEKILRGEGLEFDSVAEQVDPVTLRKNVCYIVGAVIFNSKEEVLMVQEAKRECYGRWYLPAGRMEECESILEALQREVREEAGIDCQPITLLLVQEQGPRWVRFIFLAEETGGSLKTTAEADDESLQAHWWDRKSPLPLRAHDILSLIDAGLKYRRNPWFPVTQPVDFPCHVVCQRLFLTFISSRADADDRLWLLMSNNNTSHHPRLPIVVSFRTYISKAVSKLIEDCMPSSYISVHIRGILGVQHNGRIPGKTDGICFNTLVLLENTEEGAEIGSPPSLETDCYRWQEVTNQGLKAKIIERIKDGSVLPFQSL | soluble |
